Values of other authors, collected in PMC5681435, “Differential Regulation of G1 CDK Complexes by the Hsp90-Cdc37 Chaperone System” (Cell Reports, 2017).

Biological target: B-Raf V600E kinase domain (Homo sapiens) (UniProt P15056)
Assay: ITC
Settings: cited from earlier work

B-Raf V600E kinase domain (Homo sapiens), sequence (P15056 457-717 V600E): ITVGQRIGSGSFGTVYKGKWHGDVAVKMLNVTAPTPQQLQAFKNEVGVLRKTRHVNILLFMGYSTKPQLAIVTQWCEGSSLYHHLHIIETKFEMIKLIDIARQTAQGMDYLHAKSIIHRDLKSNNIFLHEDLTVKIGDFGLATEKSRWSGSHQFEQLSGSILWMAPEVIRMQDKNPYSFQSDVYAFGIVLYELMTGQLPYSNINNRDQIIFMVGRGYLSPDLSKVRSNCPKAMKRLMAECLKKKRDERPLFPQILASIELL
Cdc37, sequence (Q16543 2-378): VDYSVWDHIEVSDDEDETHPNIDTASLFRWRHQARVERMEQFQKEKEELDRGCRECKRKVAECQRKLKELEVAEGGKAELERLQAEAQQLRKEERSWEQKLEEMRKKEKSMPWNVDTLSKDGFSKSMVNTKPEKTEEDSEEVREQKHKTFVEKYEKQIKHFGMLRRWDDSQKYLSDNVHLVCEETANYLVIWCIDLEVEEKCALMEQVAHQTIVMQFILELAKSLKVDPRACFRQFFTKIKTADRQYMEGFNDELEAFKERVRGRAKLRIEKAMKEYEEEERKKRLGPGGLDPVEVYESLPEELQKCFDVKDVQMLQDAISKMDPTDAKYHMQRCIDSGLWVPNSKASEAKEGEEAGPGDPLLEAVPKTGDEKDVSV

Cdc37 (from UniProt Q16543)
Kd: 200 nM
